Assay results as given in article PMC3855848 (Chemistry & biology, 2013).

Columns and labels:
[1] = molecular target: actKR (actinorhodin type II polyketide ketoreductase) (Streptomyces coelicolor, UniProt P16544, R65A); assay: NADPH fluorescence titration; assay type: binding
[2] = molecular target: actKR (actinorhodin type II polyketide ketoreductase) (Streptomyces coelicolor, UniProt P16544, R93A); assay: NADPH fluorescence titration; assay type: binding
[3] = molecular target: actKR (actinorhodin type II polyketide ketoreductase) (Streptomyces coelicolor, UniProt P16544); assay: NADPH fluorescence titration; assay type: binding
[4] = molecular target: actKR (actinorhodin type II polyketide ketoreductase) (Streptomyces coelicolor, UniProt P16544, R38A); assay: NADPH fluorescence titration; assay type: binding
actKR (actinorhodin type II polyketide ketoreductase) (Streptomyces coelicolor, UniProt P16544, R38A), sequence (P16544 whole entry R38A): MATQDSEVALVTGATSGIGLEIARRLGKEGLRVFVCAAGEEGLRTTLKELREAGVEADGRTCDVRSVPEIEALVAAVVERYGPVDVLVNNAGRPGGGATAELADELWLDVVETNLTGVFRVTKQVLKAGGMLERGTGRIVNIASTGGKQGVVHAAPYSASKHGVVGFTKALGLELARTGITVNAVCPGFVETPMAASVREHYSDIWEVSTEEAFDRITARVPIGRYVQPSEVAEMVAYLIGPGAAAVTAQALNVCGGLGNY

[5] = molecular target: actKR (actinorhodin type II polyketide ketoreductase) (Streptomyces coelicolor, UniProt P16544, R177A); assay: NADPH fluorescence titration; assay type: binding
actKR (actinorhodin type II polyketide ketoreductase) (Streptomyces coelicolor, UniProt P16544, R177A), sequence (P16544 whole entry R177A): as the sequence (P16544 whole entry R38A) above, with A38R, R177A counted along it

[6] = molecular target: actKR (actinorhodin type II polyketide ketoreductase) (Streptomyces coelicolor, UniProt P16544, R220A); assay: NADPH fluorescence titration; assay type: binding
actKR (actinorhodin type II polyketide ketoreductase) (Streptomyces coelicolor, UniProt P16544, R220A), sequence (P16544 whole entry R220A): as the sequence (P16544 whole entry R38A) above, with A38R, R220A counted along it

purified protein = substrate: O=C1CCC[C@H]2CCCC[C@H]12; assay: purified protein; assay type: biochemical, Streptomyces coelicolor; details: co-substrate NADPH

actKR (actinorhodin type II polyketide ketoreductase) (Streptomyces coelicolor, UniProt P16544, R93A), sequence (P16544 whole entry R93A): as the sequence (P16544 whole entry R38A) above, with A38R, R93A counted along it
actKR (actinorhodin type II polyketide ketoreductase) (Streptomyces coelicolor, UniProt P16544, R65A), sequence (P16544 whole entry R65A): as the sequence (P16544 whole entry R38A) above, with A38R, R65A counted along it

Row | Kd [1] [nM] | Kd [2] [nM] | Kd [3] [nM] | Kd [4] [nM] | Kd [5] [nM] | Kd [6] [nM] | Molecule | Km (purified protein) [µM] | kcat (purified protein) [s⁻¹] | kcat/Km (purified protein) [M⁻¹ s⁻¹]
1 | 1830 ± 210 | 6430 ± 680 | 1520 ± 90 | 4300 ± 400 | 1170 ± 100 | 1990 ± 160 | NC(=O)C1=CN([C@@H]2O[C@H](COP(=O)(O)OP(=O)(O)OC[C@H]3O[C@@H](n4cnc5c(N)ncnc54)[C@H](OP(=O)(O)O)[C@@H]3O)[C@@H](O)[C@H]2O)C=CC1 [NADPH] | – | – | –
2 | – | – | – | – | – | – | actKR (actinorhodin type II polyketide ketoreductase) (Streptomyces coelicolor A3(2); F189A) (protein) MATQDSEVALVTGATSGIGLEIARRLGKEGLRVFVCARGEEGLRTTLKELREAGVEADGRTCDVRSVPEIEALVAAVVERYGPVDVLVNNAGRPGGGATAELADELWLDVVETNLTGVFRVTKQVLKAGGMLERGTGRIVNIASTGGKQGVVHAAPYSASKHGVVGFTKALGLELARTGITVNAVCPGAVETPMAASVREHYSDIWEVSTEEAFDRITARVPIGRYVQPSEVAEMVAYLIGPGAAAVTAQALNVCGGLGNY | 8630 ± 2010 | 0.049 ± 0.005 | 5.7 ± 1.5
3 | – | – | – | – | – | – | actKR (actinorhodin type II polyketide ketoreductase) (Streptomyces coelicolor A3(2); M194W) (protein) MATQDSEVALVTGATSGIGLEIARRLGKEGLRVFVCARGEEGLRTTLKELREAGVEADGRTCDVRSVPEIEALVAAVVERYGPVDVLVNNAGRPGGGATAELADELWLDVVETNLTGVFRVTKQVLKAGGMLERGTGRIVNIASTGGKQGVVHAAPYSASKHGVVGFTKALGLELARTGITVNAVCPGFVETPWAASVREHYSDIWEVSTEEAFDRITARVPIGRYVQPSEVAEMVAYLIGPGAAAVTAQALNVCGGLGNY | 3220 ± 650 | 0.43 ± 0.06 | 130 ± 30
4 | – | – | – | – | – | – | actKR (actinorhodin type II polyketide ketoreductase) (Streptomyces coelicolor A3(2); T145A) (protein) MATQDSEVALVTGATSGIGLEIARRLGKEGLRVFVCARGEEGLRTTLKELREAGVEADGRTCDVRSVPEIEALVAAVVERYGPVDVLVNNAGRPGGGATAELADELWLDVVETNLTGVFRVTKQVLKAGGMLERGTGRIVNIASAGGKQGVVHAAPYSASKHGVVGFTKALGLELARTGITVNAVCPGFVETPMAASVREHYSDIWEVSTEEAFDRITARVPIGRYVQPSEVAEMVAYLIGPGAAAVTAQALNVCGGLGNY | 420 ± 60 | 0.18 ± 0.008 | 420 ± 60
5 | – | – | – | – | – | – | actKR (actinorhodin type II polyketide ketoreductase) (Streptomyces coelicolor A3(2); D109R) (protein) MATQDSEVALVTGATSGIGLEIARRLGKEGLRVFVCARGEEGLRTTLKELREAGVEADGRTCDVRSVPEIEALVAAVVERYGPVDVLVNNAGRPGGGATAELADELWLRVVETNLTGVFRVTKQVLKAGGMLERGTGRIVNIASTGGKQGVVHAAPYSASKHGVVGFTKALGLELARTGITVNAVCPGFVETPMAASVREHYSDIWEVSTEEAFDRITARVPIGRYVQPSEVAEMVAYLIGPGAAAVTAQALNVCGGLGNY | 1250 ± 400 | 0.078 ± 0.01 | 62 ± 21
6 | – | – | – | – | – | – | actKR (actinorhodin type II polyketide ketoreductase) (Streptomyces coelicolor A3(2)) (protein) MATQDSEVALVTGATSGIGLEIARRLGKEGLRVFVCARGEEGLRTTLKELREAGVEADGRTCDVRSVPEIEALVAAVVERYGPVDVLVNNAGRPGGGATAELADELWLDVVETNLTGVFRVTKQVLKAGGMLERGTGRIVNIASTGGKQGVVHAAPYSASKHGVVGFTKALGLELARTGITVNAVCPGFVETPMAASVREHYSDIWEVSTEEAFDRITARVPIGRYVQPSEVAEMVAYLIGPGAAAVTAQALNVCGGLGNY | 760 ± 90 | 2.55 ± 0.12 | 3230 ± 320
7 | – | – | – | – | – | – | actKR (actinorhodin type II polyketide ketoreductase) (Streptomyces coelicolor A3(2); V198A) (protein) MATQDSEVALVTGATSGIGLEIARRLGKEGLRVFVCARGEEGLRTTLKELREAGVEADGRTCDVRSVPEIEALVAAVVERYGPVDVLVNNAGRPGGGATAELADELWLDVVETNLTGVFRVTKQVLKAGGMLERGTGRIVNIASTGGKQGVVHAAPYSASKHGVVGFTKALGLELARTGITVNAVCPGFVETPMAASAREHYSDIWEVSTEEAFDRITARVPIGRYVQPSEVAEMVAYLIGPGAAAVTAQALNVCGGLGNY | 15500 ± 1490 | 0.24 ± 0.01 | 16 ± 2
